Tests used:
[1] = molecular target: T1, rat IL-23R extracellular domain (ECD) protein (rat); assay: SPR Biacore 8K, purified
T1 construct: also called rat IL-23R ECD; F1LX96 amino acids 24-354
T1 chain: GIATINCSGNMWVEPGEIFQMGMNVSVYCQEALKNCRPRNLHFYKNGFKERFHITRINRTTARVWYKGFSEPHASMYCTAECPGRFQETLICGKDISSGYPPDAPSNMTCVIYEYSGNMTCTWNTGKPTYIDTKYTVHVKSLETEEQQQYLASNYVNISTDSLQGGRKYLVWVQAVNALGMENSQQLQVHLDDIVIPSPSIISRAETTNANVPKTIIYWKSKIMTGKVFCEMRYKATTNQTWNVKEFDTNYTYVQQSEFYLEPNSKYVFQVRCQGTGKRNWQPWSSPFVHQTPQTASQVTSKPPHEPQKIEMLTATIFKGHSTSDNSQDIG
Experimental: (§1) Affinity by SPR using Biacore 8K. Affinity measurements using Surface Plasmon Resonance (SPR) were performed using a Biacore 8K system (Cytiva). […] Approximately 9000-10000 RU (response units) of mAbs were immobilized. The kinetic experiments were performed at 25° C. in running buffer 1× of (HBS-P+ Buffer 10× (Cytiva #BR100671)+100 μg/ml BSA). To perform kinetic experiments, approximately 150 RU of mAbs were captured followed by injections of human IL-23R or rat IL-23R at concentrations ranging from 0.8 nM to 500 nM (in a 5-fold serial dilution). The association phase was monitored for 3 minutes at 50 μL/min, then followed by 30 minutes of buffer flow (dissociation phase). […] The collected data were processed using Biacore insight Evaluation software (Version 3.0.12.15655). The kinetic analysis of the data was performed using a Langmuir 1:1 binding model. The result for each mAb was reported in the format of Ka (On-rate), Kd (Off-rate) and KD (equilibrium dissociation constant).

[2] = molecular target: T2, Recombinant human IL-23 receptor (IL-23R) extracellular domain (ECD) protein (human, UniProt Q5VWK5 24-355); assay: SPR Biacore 8K, purified, analysis 1
T2 construct: also called human IL-23R ECD; hu IL-23R ECD
T2 sequence: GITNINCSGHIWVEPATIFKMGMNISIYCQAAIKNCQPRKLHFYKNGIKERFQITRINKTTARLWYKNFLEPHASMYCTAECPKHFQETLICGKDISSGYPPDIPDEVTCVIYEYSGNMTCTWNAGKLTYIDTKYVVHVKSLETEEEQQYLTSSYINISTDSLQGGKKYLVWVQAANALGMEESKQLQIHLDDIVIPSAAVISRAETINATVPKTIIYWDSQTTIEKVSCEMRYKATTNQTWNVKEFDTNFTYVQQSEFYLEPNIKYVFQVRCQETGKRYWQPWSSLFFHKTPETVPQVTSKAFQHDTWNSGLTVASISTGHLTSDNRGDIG
Experimental: as §1

[3] = molecular target: T2, Recombinant human IL-23 receptor …; assay: SPR Biacore 8K, purified, analysis 2
Experimental: as §1

[4] = molecular target: T2, Recombinant human IL-23 receptor …; assay: SPR Biacore 8K, supernatant, analysis 2
Method in brief: (§2)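 Antibodies (~150 RU) were captured and human or rat IL-23R ECD injected at 0.8–500 nM in 5-fold steps, at 25 °C in HBS-P+ with 100 μg/ml BSA. Association ran 3 min at 50 μL/min, followed by 30 min dissociation. Ka, Kd and KD came from a Langmuir 1:1 fit.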

[5] = molecular target: T2, Recombinant human IL-23 receptor …; assay: SPR ProteOn, purified
Experimental: Affinity by SPR using ProteOn. Affinity measurements using Surface Plasmon Resonance (SPR) were performed using a ProteOn XPR36 system (BioRad). […] Approximately 6000 RU (response units) of mAbs were immobilized. The kinetic experiments were performed at 25° C. in running buffer (DPBS+0.01% P20+100 μg/ml BSA). […] The association phase was monitored for 3 minutes at 50 μL/min, then followed by 10 minutes of buffer flow (dissociation phase). The chip surface was regenerated with two 18 second pulses of 100 mM H3PO4 (Sigma, Cat #7961) at 100 μL/min. The collected data were processed using ProteOn Manager software. First, the data was corrected for background using inter-spots. Then, double reference subtraction of the data was performed by using the buffer injection for analyte injections. The kinetic analysis of the data was performed using a Langmuir 1:1 binding model. The result for each mAb was reported in the format of Ka (On-rate), Kd (Off-rate) and KD (equilibrium dissociation constant).

[6] = molecular target: T2, Recombinant human IL-23 receptor …; assay: SPR Biacore 8K, supernatant, analysis 1
Method in brief: as §2

[7] = molecular target: T1, rat IL-23R extracellular domain (ECD) …; assay: SPR Biacore 8K, supernatant
Method in brief: as §2

B1: I23RB101 (antibody, mouse IgG2a, kappa, V domains shown)
VH: EVQLQQSGAEVKKPGSSVKVSCKASGGTFSSYAISWVRQAPGQGLEWMGWINPNSGGTNYAQKFQGRVTMTRDTSISTAYMELSRLRSDDTAVYYCARGYRYGPLDGFDIWGQGTTLTVSS
VL: DIVMTQSHKFMSTSIGDRVSITCKTSQDVRTAVAWYQQKPGQSPKLLIYSASYRYIGVPDRFTGSGSGTDFTFTISDVQAEDLALYYCQQHYSTPYTFGGGTKLEIKR
notes: mouse immunization; mouse IgG2a/kappa
binding result [1]: no binding (tested: 500 nM)

B2: I23RB35 (antibody, mouse IgG2a, kappa, V domains shown)
VH: DVQLQESGPGLVKPSQSLSLTCSVTGYSITSGHNWNWIRQFPGNKLEWLGYISYDGSNNYDPSLKNRISITRDTSKNQFFLKLNSVTTEDTATYYCARGGGYFGNSYRVFASWGQGTTVTVSS
VL: DIVLTQSPASLAVSLGQRATISCRASESVDSYGNSFMHWYQQKPGQPPKLLIYRASNLESEIPARFSGRGSGTDFTLTINPVEADDVATYYCQQSNADPYTFGGGTKLEIKR
notes: as for B1
Kd [2]: < 0.0527 nM
koff [2]: < 2.89e-05 s⁻¹
kon [2]: 549000 M⁻¹ s⁻¹
Kd [3]: < 0.0687 nM
koff [3]: < 2.89e-05 s⁻¹
kon [3]: 421000 M⁻¹ s⁻¹
binding result [1]: no binding (tested: 500 nM)
Kd [4]: < 0.0777 nM
koff [4]: < 2.89e-05 s⁻¹
kon [4]: 372000 M⁻¹ s⁻¹

B3: I23RB6 (antibody, mouse IgG2a, kappa, V domains shown)
VH: QVQLVQSGAEVKKPGSSVKVSCKASGGTFSSYAISWVRQAPGQGLEWMGGIIPIFGTANYAQKFQGRVTITADESTSTAYMELSSLRSEDTAVYYCARGRYIRSYDYFDYWGQGTLVTVSS
VL: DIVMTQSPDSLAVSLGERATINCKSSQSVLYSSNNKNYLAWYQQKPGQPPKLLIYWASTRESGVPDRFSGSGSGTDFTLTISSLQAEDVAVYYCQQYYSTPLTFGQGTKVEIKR
notes: phage display; human V regions, mouse IgG2a/kappa constant regions
binding result [5]: no binding

B4: I23RB33 (antibody, mouse IgG2a, kappa, V domains shown)
VH: EVQLQQSGAELVKPGASVKLSCTASGFNIRDIYIHWVKQRPEQGLEWIGRIDPANGHSIYAAKFQGKATITADTSLNIAYMQLSSLTSGDTAVYYCARGSDNDYGRVLAYWGLGTSVTVSS
VL: DIVLTQSPAIMSASPGEKVTMTCRASSSVRSSYLHWYQQKSGASPKLWIYSTSNLASGVPARFSGSGSGTSYSLTITSVEAEDAATYYCQQYTGNPIFTFGSGTKLELKR
notes: as for B1
Kd [2]: 0.162 nM
koff [2]: 0.000155 s⁻¹
kon [2]: 957000 M⁻¹ s⁻¹
Kd [3]: 0.216 nM
koff [3]: 0.000149 s⁻¹
kon [3]: 691000 M⁻¹ s⁻¹
binding result [1]: no binding (tested: 500 nM)
Kd [4]: 0.218 nM
koff [4]: 0.000146 s⁻¹
kon [4]: 672000 M⁻¹ s⁻¹

B5: I23RB47 (antibody, mouse IgG2a, kappa, V domains shown)
VH: QVQLKESGPGLVAPSQSLSITCTVSGFSLTNYDIHWVRQSPGKGLEWLGVIWSDGRTDYKGAFISRLSISKDNSKSQVFFKMNSLQADDTAIYYCARNNYYRYGRNTMDYWGQGTSVTVSS
VL: DIVLTQSPASQSASLGESVTITCLASQTIGSWLAWYQQKPGKSPQLLIYAATRLADGVPSRFSGSGSGTKFSFKISSLQAEDFVFYYCHQLYSIPLTFGGGTKLEMKR
notes: as for B1
Kd [6]: < 0.051 nM
koff [6]: < 2.89e-05 s⁻¹
kon [6]: 566000 M⁻¹ s⁻¹
Kd [3]: 0.114 nM
koff [3]: 5.17e-05 s⁻¹
kon [3]: 453000 M⁻¹ s⁻¹
binding result [1]: no binding (tested: 500 nM)
Kd [4]: 0.119 nM
koff [4]: 5.32e-05 s⁻¹
kon [4]: 445000 M⁻¹ s⁻¹

B6: I23RB1 (antibody, mouse IgG2a, kappa, V domains shown)
VH: QVQLVQSGAEVKKPGSSVKVSCKASGGTFKNYAISWVRQAPGQGLEWMGWIRPIFGTAYYAQKFQGRVTITADESTSTAYMELSSLRSEDTAVYYCARDSGSRYAGRYAFDYWGQGTLVTVSS
VL: EIVLTQSPATLSLSPGERATLSCRASQSVSSYLAWYQQKPGQAPRLLIYDASNRATGIPARFSGSGSGTDFTLTISSLEPEDFAVYYCQQRSNWPLTFGQGTKVEIKR
notes: as for B3
Kd [2]: 2.8 nM
koff [2]: 0.00111 s⁻¹
kon [2]: 399000 M⁻¹ s⁻¹
binding result [1]: no binding (tested: 500 nM)
Kd [5]: 0.667 nM
koff [5]: 0.00229 s⁻¹
kon [5]: 3.45e+06 M⁻¹ s⁻¹
Kd [4]: 2.62 nM
koff [4]: 0.000982 s⁻¹
kon [4]: 376000 M⁻¹ s⁻¹

B7: I23RB9 (antibody, mouse IgG2a, kappa, V domains shown)
VH: QVQLVQSGAEVKKPGSSVKVSCKASGGTFSSYAISWVRQAPGQGLEWMGGIIPIFGTANYAQKFQGRVTITADESTSTAYMELSSLRSEDTAVYYCARDRSYSYGLSGLGYYGFDYWGQGTLVTVSS
VL: B6 VL
notes: as for B3
binding result [5]: no binding

B8: I23RB2 (antibody, mouse IgG2a, kappa, V domains shown)
VH: QVQLVQSGAEVKKPGSSVKVSCKASGGTFSSYAISWVRQAPGQGLEWMGGIIPIFGTANYAQKFQGRVTITADESTSTAYMELSSLRSEDTAVYYCARDRYRYLGANGFDYWGQGTLVTVSS
VL: B6 VL
notes: as for B3
Kd [5]: > 4000 nM

B9: I23RB3 (antibody, mouse IgG2a, kappa, V domains shown)
VH: QVQLVQSGAEVKKPGSSVKVSCKASGGTFKSYSIHWVRQAPGQGLEWMGGIIPYFGYANYAQKFQGRVTITADESTSTAYMELSSLRSEDTAVYYCARERGYYGSIYYGGGFDYWGQGTLVTVSS
VL: B6 VL
notes: as for B3
binding result [7]: no binding (tested: 500 nM)
Kd [2]: 4.76 nM
koff [2]: 0.000255 s⁻¹
kon [2]: 53600 M⁻¹ s⁻¹
Kd [5]: 1.92 nM
koff [5]: 0.000335 s⁻¹
kon [5]: 174000 M⁻¹ s⁻¹
Kd [4]: 3.99 nM
koff [4]: 0.000233 s⁻¹
kon [4]: 58300 M⁻¹ s⁻¹

B10: I23RB4 (antibody, mouse IgG2a, kappa, V domains shown)
VH: QVQLVQSGAEVKKPGSSVKVSCKASGGTFKTYAIHWVRQAPGQGLEWMGWIIPIFGTANYAQKFQGRVTITADESTSTAYMELSSLRSEDTAVYYCARDGGYYGSRYYPRSYYFDYWGQGTLVTVSS
VL: B6 VL
notes: as for B3
binding result [7]: no binding (tested: 500 nM)
Kd [2]: 0.588 nM
koff [2]: 0.000135 s⁻¹
kon [2]: 230000 M⁻¹ s⁻¹
Kd [5]: 0.151 nM
koff [5]: 0.000235 s⁻¹
kon [5]: 1.56e+06 M⁻¹ s⁻¹
Kd [4]: 0.477 nM
koff [4]: 0.000121 s⁻¹
kon [4]: 254000 M⁻¹ s⁻¹

B11: I23RB32 (antibody, mouse IgG2a, kappa, V domains shown)
VH: EFQLQQSGPELVKPGASVKLSCKASGYTFTDYALHWVKQSPGQGLEWIGWIYPGGGNTYYNDKFKGKATMTADKSSSTAYMQLSSLTSEDSAVYFCARGRLRRDYPMDYWGQGTSVTVSS
VL: DIVMTQSPSSLTVTAGEKVTMSCKSSQSLLNSGNQKNYLTWYQQKPGQPPKLLIYWASTRESGVPDRFTGSGSGTDFTLTISSVQAEDLAVYYCQNDYTYPLTFGSGTKLEIKR
notes: as for B1
Kd [2]: 0.332 nM
koff [2]: 0.000182 s⁻¹
kon [2]: 550000 M⁻¹ s⁻¹
Kd [3]: 0.34 nM
koff [3]: 0.000172 s⁻¹
kon [3]: 506000 M⁻¹ s⁻¹
binding result [1]: no binding (tested: 500 nM)

Reference: patent US20250179196A1 (Janssen / Centocor, published 2025)
